The target in assay [1] is human epidermal growth factor receptor (EGFR) (human) (UniProt P00533). Kind of assay: cell-based or functional assay.
The target of assay [2] is human epidermal growth factor receptor (EGFR) on cells and tissues (human) (UniProt P00533). The experiment in a line: in vivo fluorescence imaging.

In assay [1], Saporin conjugated Y104D displayed an EC50 for Cell Growth Inhibition (CGI), Keratinocyte (HEK-N) cells of 0.0158 µg/mL. In assay [1], Saporin conjugated Y104D/Q111P returned an EC50 for Cell Growth Inhibition (CGI), A431 cells of 0.0024 µg/mL and an EC50 for Cell Growth Inhibition (CGI), Keratinocyte (HEK-N) cells of 0.0225 µg/mL. In assay [2], control Human IgG (antibody) gave a fold increase of tumor DL755 signal over 7 days of 3 fold.
